Source: US20190263934A1
One block for each substance: values may come before it.

Legend:
rFcRn (rat) [1] = molecular target: rFcRn (rat) (UniProt P13599); test: SPR Biacore, pH 7.4
Target sequence in this assay (P13599 23-298 limits assumed, form in doubt, chain 1 of 2): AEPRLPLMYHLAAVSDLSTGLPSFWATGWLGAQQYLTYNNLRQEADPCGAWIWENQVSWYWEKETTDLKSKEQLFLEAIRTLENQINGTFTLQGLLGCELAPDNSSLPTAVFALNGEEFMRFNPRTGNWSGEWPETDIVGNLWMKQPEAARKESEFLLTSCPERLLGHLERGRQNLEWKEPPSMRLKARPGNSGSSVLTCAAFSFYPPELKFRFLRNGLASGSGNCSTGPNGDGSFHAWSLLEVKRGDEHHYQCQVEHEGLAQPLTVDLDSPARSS
Target sequence in this assay (P07151 21-119 limits assumed, form in doubt, chain 2 of 2, further chain): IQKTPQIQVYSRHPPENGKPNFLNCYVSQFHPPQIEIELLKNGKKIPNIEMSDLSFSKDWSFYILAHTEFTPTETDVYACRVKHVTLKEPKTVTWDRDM

[2] = molecular target: biotinylated hFcRn (human) (UniProt P55899); test: SPR Biacore, pH 7.4
rFcRn (rat) [3] = molecular target: rFcRn (rat) (UniProt P13599); test: SPR Biacore, pH 6.0
Target sequence in this assay (P13599 23-298 limits assumed, form in doubt, chain 1 of 2): as the sequence (P13599 23-298 limits assumed, form in doubt, chain 1 of 2) above
Target sequence in this assay (P07151 21-119 limits assumed, form in doubt, chain 2 of 2, further chain): as the sequence (P07151 21-119 limits assumed, form in doubt, chain 2 of 2, further chain) above

[4] = molecular target: biotinylated hFcRn (human) (UniProt P55899); test: SPR Biacore, pH 6.0
rFcRn (rat) [5] = molecular target: rFcRn (rat) (UniProt P13599); test: Biacore SPR, pH 6.0, bivalent fit
Target sequence in this assay (P13599 23-298, form in doubt, chain 1 of 2): as the sequence (P13599 23-298 limits assumed, form in doubt, chain 1 of 2) above
Target sequence in this assay (P07151 21-119, form in doubt, chain 2 of 2, further chain): as the sequence (P07151 21-119 limits assumed, form in doubt, chain 2 of 2, further chain) above

[6] = molecular target: biotinylated hFcRn (human) (UniProt P55899); test: Biacore SPR, pH 6.0, bivalent fit
[7] = molecular target: biotinylated hFcRn (human) (UniProt P55899); test: SPR Biacore, pH 6.0; remark: listed apart in the source
rFcRn (rat) [8] = molecular target: rFcRn (rat) (UniProt P13599); test: SPR Biacore, pH 7.4, 1000 nM antibody
Target sequence in this assay (P13599 23-298 limits assumed, form in doubt, chain 1 of 2): as the sequence (P13599 23-298 limits assumed, form in doubt, chain 1 of 2) above
Target sequence in this assay (P07151 21-119 limits assumed, form in doubt, chain 2 of 2, further chain): as the sequence (P07151 21-119 limits assumed, form in doubt, chain 2 of 2, further chain) above

[9] = molecular target: biotinylated hFcRn (human) (UniProt P55899); test: SPR Biacore, pH 7.4, 1000 nM antibody
rFcRn (rat) [10] = molecular target: rFcRn (rat) (UniProt P13599); test: Biacore SPR, pH 7.4, single antibody concentration, steady state
Target sequence in this assay (P13599 23-298, form in doubt, chain 1 of 2): as the sequence (P13599 23-298 limits assumed, form in doubt, chain 1 of 2) above
Target sequence in this assay (P07151 21-119, form in doubt, chain 2 of 2, further chain): as the sequence (P07151 21-119 limits assumed, form in doubt, chain 2 of 2, further chain) above

[11] = molecular target: biotinylated hFcRn (human) (UniProt P55899); test: as above
[12] = molecular target: Human CD16a (FcγRIIIa) V158 with C-terminal HPC4 tag (human) (UniProt P08637); test: Biacore SPR, captured HPC4-tagged FcγRIIIa-V158, steady-state fit
[13] = molecular target: biotinylated human FcRn (hFcRn; p51 subunit residues 24-297 with C-terminal Avi-tag, β2-m residues 21-119) (human) (UniProt P55899); test: Biacore SPR, Biotin CAPture, pH 7.4, 1000 nM antibody, steady state
[14] = molecular target: biotinylated human FcRn (hFcRn; p51 subunit residues 24-297 with C-terminal Avi-tag, β2-m residues 21-119) (human) (UniProt P55899); test: Biacore SPR, pH 6.0, apparent affinity
[15] = molecular target: biotinylated human FcRn (hFcRn; p51 subunit residues 24-297 with C-terminal Avi-tag, β2-m residues 21-119) (human) (UniProt P55899); test: Biacore SPR, pH 7.4, steady state, 1000 nM antibody
[16] = molecular target: biotinylated human FcRn (hFcRn; p51 subunit residues 24-297 with C-terminal Avi-tag, β2-m residues 21-119) (human) (UniProt P55899); test: Biacore SPR, human FcRn, pH 7.4, steady state
[17] = molecular target: biotinylated human FcRn (hFcRn; p51 subunit residues 24-297 with C-terminal Avi-tag, β2-m residues 21-119) (human) (UniProt P55899); test: Biacore SPR, human FcRn, pH 6.0 (column 'Affinity, pH 6.0 (nM)')
[18] = molecular target: biotinylated human FcRn (hFcRn; p51 subunit residues 24-297 with C-terminal Avi-tag, β2-m residues 21-119) (human) (UniProt P55899); test: Biacore SPR, Biotin CAPture of biotinylated human FcRn, pH 6.0
[19] = molecular target: biotinylated human FcRn (hFcRn; p51 subunit residues 24-297 with C-terminal Avi-tag, β2-m residues 21-119) (human) (UniProt P55899); test: Biacore SPR; pH 6.0 affinity (M^-1) over pH 7.4 steady state RU
[20] = molecular target: biotinylated human FcRn (hFcRn; p51 subunit residues 24-297 with C-terminal Avi-tag, β2-m residues 21-119) (human) (UniProt P55899); test: Biacore SPR; second ratio column (inverse of c7)

Sequence of Human CD16a (FcγRIIIa) V158 with C-terminal HPC4 tag (human) (P08637 17-208 F176V): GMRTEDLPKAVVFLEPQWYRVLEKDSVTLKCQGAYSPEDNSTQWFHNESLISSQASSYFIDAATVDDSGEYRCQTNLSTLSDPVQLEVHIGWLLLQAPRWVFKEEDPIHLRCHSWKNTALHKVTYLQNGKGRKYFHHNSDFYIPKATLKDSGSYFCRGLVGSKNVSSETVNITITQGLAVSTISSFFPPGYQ

Substance: mAb1 T307W (antibody)
- Steady State RU (rFcRn (rat) [1]): 21.9 RU
- Kd (rFcRn (rat) [5]): 111 nM
- Kd [6]: 8740 nM
- Kd (rFcRn (rat) [3]): 111 nM
- Kd [4]: 8740 nM
- Kd [7]: > 3000 nM
- Steady State RU (rFcRn (rat) [8]): 19.2 RU

Substance: mAb1 T307W/N434F (antibody)
- Steady State RU (rFcRn (rat) [1]): 65.1 RU
- Steady State RU [2]: 30.5 RU
- Kd (rFcRn (rat) [3]): 2.7 nM
- koff (rFcRn (rat) [3]): 0.00057 s⁻¹
- Kd [4]: 38.2 nM

Substance: mAb1 T307W/N434Y (antibody)
- Steady State RU (rFcRn (rat) [1]): 69.6 RU
- Steady State RU [2]: 37.2 RU
- Kd (rFcRn (rat) [3]): 0.62 nM
- koff (rFcRn (rat) [3]): 0.0003 s⁻¹
- kon (rFcRn (rat) [3]): 480000 M⁻¹ s⁻¹
- Kd [4]: 21.5 nM
- koff [4]: 0.0317 s⁻¹
- kon [4]: 1.48e+06 M⁻¹ s⁻¹

Substance: mAb1 Y436H (antibody)
- Kd (rFcRn (rat) [5]): 131 nM
- Kd (rFcRn (rat) [3]): 131 nM
- Steady State RU (rFcRn (rat) [8]): 16.3 RU
- Steady State RU [9]: 3.6 RU

Substance: mAb1 Y436N (antibody)
- Kd (rFcRn (rat) [5]): 233 nM
- Kd (rFcRn (rat) [3]): 233 nM
- Steady State RU (rFcRn (rat) [8]): 17.4 RU
- Steady State RU [9]: 3.6 RU

Substance: mAb1 YDQN (M252Y/T256D/T307Q) (antibody)
- Steady State RU (pH 7.4) (rFcRn (rat) [10]): 65.2 RU
- Steady State RU (pH 7.4) [11]: 19.8 RU
- Kd (rFcRn (rat) [5]): 5.1 nM
- koff (rFcRn (rat) [5]): 0.0003 s⁻¹
- kon (rFcRn (rat) [5]): 5000 M⁻¹ s⁻¹
- Kd [6]: 115 nM
- koff [6]: 0.28 s⁻¹
- kon [6]: 25000 M⁻¹ s⁻¹
- Kd [12]: 1060 nM

Substance: mAb1 YEQN (M252Y/T256E/T307Q) (antibody)
- Steady State RU (pH 7.4) (rFcRn (rat) [10]): 61.8 RU
- Steady State RU (pH 7.4) [11]: 15.2 RU
- Kd (rFcRn (rat) [5]): 7.8 nM
- koff (rFcRn (rat) [5]): 0.0004 s⁻¹
- kon (rFcRn (rat) [5]): 5000 M⁻¹ s⁻¹
- Kd [6]: 218 nM
- koff [6]: 0.41 s⁻¹
- kon [6]: 19000 M⁻¹ s⁻¹
- Kd [12]: 1620 nM

Substance: mAb1 YTE (M252Y/S254T/T256E) (antibody)
- Steady State RU (pH 7.4) (rFcRn (rat) [10]): 53.9 RU
- Steady State RU (pH 7.4) [11]: 13.2 RU
- Kd (rFcRn (rat) [5]): 18 nM
- koff (rFcRn (rat) [5]): 0.0012 s⁻¹
- kon (rFcRn (rat) [5]): 65000 M⁻¹ s⁻¹
- Kd [6]: 342 nM
- koff [6]: 0.05 s⁻¹
- kon [6]: 143000 M⁻¹ s⁻¹
- Kd [12]: 1040 nM

Substance: mAb1 YTTY variant (M252Y/N434Y) (antibody)
- pH 7.4 RU [13]: 54.4 RU
- Ka [14]: 1.2e+08 M⁻¹
- Ratio (pH 6.0/pH 7.4) [19]: 2.22e+06
- Ratio (pH 7.4 RU / pH 6.0 affinity) [20]: 4.51e-07
- Steady State Binding, pH 7.4 (RU) [15]: 54.1 RU
- Kd [18]: 22.9 nM

Substance: mAb1 YTWN (M252Y/T307W) (antibody)
- Steady State RU (pH 7.4) (rFcRn (rat) [10]): 66.1 RU
- Steady State RU (pH 7.4) [11]: 15.9 RU
- Kd (rFcRn (rat) [5]): 5.2 nM
- koff (rFcRn (rat) [5]): 0.0011 s⁻¹
- kon (rFcRn (rat) [5]): 21000 M⁻¹ s⁻¹
- Kd [6]: 118 nM
- kon [6]: 48000 M⁻¹ s⁻¹
- Kd [12]: 896 nM

Substance: mAb1 YTWY variant (M252Y/T307W/N434Y) (antibody)
- pH 7.4 RU [13]: 77.1 RU
- Ka [14]: 1.06e+08 M⁻¹
- Steady State Binding, pH 7.4 (RU) [15]: 75.1 RU

Further lines, results first:

- Steady State RU (rFcRn (rat) [1]): 63 RU
- Steady State RU [2]: 38.4 RU
- Kd (rFcRn (rat) [3]): 4.11 nM
- koff (rFcRn (rat) [3]): 0.00048 s⁻¹
- kon (rFcRn (rat) [3]): 116000 M⁻¹ s⁻¹
- Kd [4]: 32.4 nM
- koff [4]: 0.0202 s⁻¹
- kon [4]: 622000 M⁻¹ s⁻¹
Substance: mAb1 T307Q/N434Y (antibody)

- Kd (rFcRn (rat) [5]): 1140 nM
- Kd (rFcRn (rat) [3]): 1140 nM
- Steady State RU (rFcRn (rat) [8]): 10.3 RU
- Steady State RU [9]: 3.7 RU
Substance: mAb1 Y436W (antibody)

- Steady State RU (pH 7.4) (rFcRn (rat) [10]): 56 RU
- Steady State RU (pH 7.4) [11]: 9.7 RU
- Kd (rFcRn (rat) [5]): 5.9 nM
- Kd [12]: 1060 nM
Substance: mAb1 YDTN (M252Y/T256D) (antibody)

- pH 7.4 RU [13]: 69.7 RU
- Ka [14]: 9.01e+07 M⁻¹
- Steady State Binding, pH 7.4 (RU) [15]: 65.4 RU
Substance: mAb1 YDTY variant (M252Y/T256D/N434Y) (antibody)

- pH 7.4 RU [13]: 75.7 RU
- Ka [14]: 1.66e+08 M⁻¹
- Steady State Binding, pH 7.4 (RU) [15]: 71.8 RU
Substance: mAb1 YDWF variant (M252Y/T256D/T307W/N434F) (antibody)

- pH 7.4 RU [13]: 93.6 RU
- Steady State RU (pH 7.4) [16]: 93.6 RU
- Kd [17]: 4.8 nM
- Kd [18]: 4.8 nM
Substance: mAb1 YEQY variant (M252Y/T256E/T307Q/N434Y) (antibody)

- Steady State RU (pH 7.4) (rFcRn (rat) [10]): 55.1 RU
- Steady State RU (pH 7.4) [11]: 9.8 RU
- Kd (rFcRn (rat) [5]): 8.4 nM
- koff (rFcRn (rat) [5]): 0.0027 s⁻¹
- kon (rFcRn (rat) [5]): 32000 M⁻¹ s⁻¹
- Kd [6]: 128 nM
- kon [6]: 59000 M⁻¹ s⁻¹
- Kd [12]: 878 nM
Substance: mAb1 YETN (M252Y/T256E) (antibody)

- pH 7.4 RU [13]: 98.2 RU
- Steady State RU (pH 7.4) [16]: 98.2 RU
Substance: mAb1 YEWY variant (M252Y/T256E/T307W/N434Y) (antibody)
